# Measured values as given in US10196454B2, “Anti-PMEL17 antibodies and immunoconjugates” (GENENTECH, INC., priority 2012, dated 2019).
# B1: 17A9 (antibody, listed as Mus musculus, V domains shown)
# VH: EVQLQQSGPELVKPGASMKISCKSSGYSFTRYTMNWVKQSHGKNLEWIGVINPYNGGTVYNQKFKGKATLTVDKSSSTAYMELLSLTSEDSAVYYCARTDYDGYAMDYWGQGTSVTVSS
# VL: DVQITQSPSYLAASPGETITINCRATKSISKYLAWYQEQPGKTNNLLIYSGSTLQSGIPSRFSGSGSGTDFTLTISSLEPEDFAMYYCQQHNEYPYTFGSGTKLEIK
# Legend:
# human PMEL17 = test: Monoclonal antibody epitope mapping with PMEL17 deletion mutants (immunoblot, FACS); format: binding; conditions: N-terminal deletions by immunoblot, C-terminal deletions in 293 cells by FACS
# Procedure: All the constructs for epitope mapping were made by PCR amplification of each fragment and subcloning into either pRKtkneo vector with an N-terminal gD tag, or pRKtkneo vector with an N-terminal gD tag and a C-terminal GPI anchor. Transfections were performed using FuGene 6 (Roche Applied Science), and empty vector was used as control. Full-length human PMEL17 was subcloned into pRKtkneo vector with an N-terminal gD tag.
# A signal sequence and a gD epitope tag were fused to the N-terminal sequence of a series of deletion mutants, which were then expressed in mammalian cells and the lysates analyzed by immuoblotting for reactivity with 17A9 or 77E6. The N-terminal deletions tested included Δ100, Δ255, Δ292, Δ315, Δ444, Δ515, and Δ567.
# In addition, C-terminal deletions with an N-terminal gD tag and a C-terminal GPI anchor were transiently transfected into 293 cells and analyzed for antibody binding by FACS. The C-terminal deletions tested included PMEL1725-125, PMEL1725-105, PMEL1725-85, PMEL1725-65, and PMEL1725-45. Finally, a PMEL17 fragment comprising the region from amino acid 515 through the transmembrane domain, but lacking the cytoplasmic region (“Δ515-C”) and a PMEL17 fragment comprising just the cytoplasmic domain with an N-terminal gD tag and a C-terminal GPI anchor were analyzed by immuoblotting for reactivity with 77E6.
# PMEL17 = target: T1, PMEL17 (Homo sapiens, UniProt P40967); test: Immunohistochemistry of human melanoma tissue specimens; set-up: The expression of PMEL17 was evaluated across a panel of human melanoma tissue specimines by immunohistochemistry; from tissue; host or cells: 58 human melanoma specimens (30 primary, 28 metastatic); conditions: 58 specimens (30 primary, 28 metastatic)
# T1 sequence (P40967 25-661): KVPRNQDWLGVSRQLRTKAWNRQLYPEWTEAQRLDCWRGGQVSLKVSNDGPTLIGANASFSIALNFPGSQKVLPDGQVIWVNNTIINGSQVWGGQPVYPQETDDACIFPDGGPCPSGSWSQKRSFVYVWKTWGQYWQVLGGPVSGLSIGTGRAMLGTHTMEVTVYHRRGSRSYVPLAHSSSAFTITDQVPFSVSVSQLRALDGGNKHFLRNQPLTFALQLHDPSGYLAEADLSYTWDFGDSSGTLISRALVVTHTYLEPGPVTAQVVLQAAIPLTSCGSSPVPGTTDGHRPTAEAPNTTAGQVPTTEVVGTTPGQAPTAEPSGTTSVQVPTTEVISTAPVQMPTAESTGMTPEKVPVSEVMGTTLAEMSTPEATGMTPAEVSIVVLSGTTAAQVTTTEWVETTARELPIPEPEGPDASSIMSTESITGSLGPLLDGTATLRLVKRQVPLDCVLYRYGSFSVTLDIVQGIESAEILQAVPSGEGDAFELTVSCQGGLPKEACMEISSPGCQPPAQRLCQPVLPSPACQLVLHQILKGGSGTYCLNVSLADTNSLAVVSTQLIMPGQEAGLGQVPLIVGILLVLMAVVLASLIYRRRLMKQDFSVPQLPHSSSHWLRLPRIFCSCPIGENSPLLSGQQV
# Procedure: To assess the potential liability of targeting PMEL17 on normal melanocytes, the level of expression of this target in normal human skin was evaluated by immunohistochemistry. Immunohistochemistry (IHC) was performed on 4 μm thick formalin-fixed paraffin embedded tissue sections mounted on glass slides. All IHC steps were carried out on the Ventana Discovery XT (Ventana Medical Systems; Tucson, Ariz.) autostainer. Pretreatment was done with Cell Conditioner 1, standard time. Primary antibody, PMEL17 clone 31D1 was used at a concentration of 10 μg/ml and was incubated on slides for 1 hour at 37° C. Ventana Mouse OmniMap (Ventana Medical Systems; AZ) was used as the detection system. […]
# The expression of PMEL17 was evaluated across a panel of human melanoma tissue specimines by immunohistochemistry substantially as described above, using both 17A9 and 31D1. Staining was scored on an arbitrary scale ranging from zero, for absent, to 3+ for most intense: • 0 (negative): very weak or no staining in >90% of melanoma cells • 1+(mild): predominant staining pattern is weak • 2+(moderate): predominant staining pattern is moderately strong in the majority (>50%) of melanoma cells • 3+(strong): predominant staining pattern is strong in the majority (>50%) of melanoma cells Exemplary staining for each of the levels of the scale is shown in FIG. 7A, left panels.
# 928mel cells = test: Live cell staining and FACS with directly labeled antibodies; format: cell-based
# Description: The predominance of the N-terminal epitope at the cell surface relative to the cytoplasmic epitope is consistent with stronger FACS signals observed with 17A9 over 77E6. Nevertheless, it appears that some portion of the cytoplasmic region is present at the cell surface to account for the FACS signals observed with 77E6. To address this, live cells were reacted with the 77E6 and 17A9 antibodies that were directly labeled with Alexa Fluors 555 and 488, respectively. […] The binding of the individual antibodies was unaffected by the presence of the other antibody. […] Further, although 17A9 stained all cells uniformly and consistently, 77E6 staining was variable from cell to cell and the overall degree of staining varied across preparations. […] Overall, the uniform and intense reactivity of 17A9 on melanoma cells makes this antibody a good candidate for drug conjugation.
# normal human melanocytes [1] = test: Flow cytometry of normal human melanocytes and SK-MEL-5 cells; format: binding; conditions: intensity comparable to SK-MEL-5
# Description: Normal human melanocytes and SK-MEL-5 melanoma cells were reacted with chimeric 17A9, or no primary antibody, followed by Alexa 488-labeled anti-human IgG and analyzed by flow cytometry.
# normal human melanocytes [2] = test: Toxicity of anti-PMEL17 ADC in normal melanocytes (CellTiter-GloII, five days); format: cell-based; conditions: versus SK-MEL-5 and SK-MEL-23, five days
# Procedure: Finally, SK-MEL-5 and SK-MEL-23 melanoma cells, or normal human melanocytes, were incubated with serial dilutions of the 17A9 ADC and five days later cell numbers were determined using CellTiter-GloII.
molecule,measurement,setting,value
B1,binding to PMEL17 deletion mutants,human PMEL17,bound only to PMEL1725-125
same,binding to PMEL17 deletion mutants,human PMEL17; listed as 17A6,bound only to full-length PMEL17
same,human melanoma specimens PMEL17+ when detected with the antibody,PMEL17,64%
same,binding in the presence of the other labeled antibody (competition),"928mel cells; 77E6 and 17A9 alone or both together, FACS",unaffected
same,cell surface staining of live-labeled cells,928mel cells; Alexa Fluor labeled antibodies,uniform cell surface staining
same,FACS staining of cultured normal human melanocytes,normal human melanocytes [1],FACS+
same,IC50 on normal melanocytes relative to melanoma cell lines,normal human melanocytes [2],~100 fold
